Patent publication US20200164014A1, “MESENCHYMAL STEM CELL ATTRACTING AGENT” (Shiseido Company, Ltd., priority 2017, published 2020)

B1: RSPO4: R-spondin family, member 4, purchased protein, candidate aging factor (protein, UniProt Q2I0M5 20-234, looked up)
R-spondin-4: LNRRKKQVGTGLGGNCTGCIICSEENGCSTCQQRLFLFIRREGIRQYGKCLHDCPPGYFGIRGQEVNRCKKCGATCESCFSQDFCIRCKRQFYLYKGKCLPTCPPGTLAHQNTRECQGECELGPWGGWSPCTHNGKTCGSAWGLESRVREAGRAGHEEAATCQVLSESRKCPIQRPCPGERSPGQKKGRKDRRPRKDRKLDRRLDVRPRQPGLQP
B2: IGFBP7: insulin-like growth factor binding protein 7, purchased protein, candidate aging factor (protein, UniProt Q16270 27-282, looked up)
Insulin-like growth …: SSSDTCGPCEPASCPPLPPLGCLLGETRDACGCCPMCARGEGEPCGGGGAGRGYCAPGMECVKSRKRRKGKAGAAAGGPGVSGVCVCKSRYPVCGSDGTTYPSGCQLRAASQRAESRGEKAITQVSKGTCEQGPSIVTPPKDIWNVTGAQVYLSCEVIGIPTPVLIWNKVKRGHYGVQRTELLPGDRDNLAIQTRGGPEKHEVTGWVLVSPLSKEDAGEYECHASNSQGQASASAKITVVDALHEIPVKKGEGAEL

Test system: young fibroblasts
Assay: Addition of aging factor proteins to young fibroblasts, quantitative RT-PCR
Type: cell-based
Details: protein added at 10 μg/ml vs 0 μg/ml, cultured 2 days
Procedure: Dermal fibroblasts collected from the back skin of an adult were cultured in Dulbecco's Modified Eagle Medium supplemented with 10% FBS. As normal fibroblasts (young fibroblasts), cells with a culture period of less than 1 month and a Pdl<30 were used. The same cells were cultured for 3 months or more and slowly proliferating cells (having a doubling time of less than 0.5/week and a Pdl>50) were used as the senescent fibroblasts. Normal fibroblasts were seeded in the upper layer of a six-well Transwell system (Falcon; Franklin Lakes, N.J.) filled with Dulbecco's Modified Eagle Medium supplemented with 10% FBS to a density of 1250 cells/cm^2. Sub-constructed senescent fibroblasts and normal fibroblasts were each seeded in two wells of the lower layer of the Transwell system. After combining the upper layer and the lower layer of the Transwell system for 2 days under a humidified atmosphere at 37° C. and 5% CO2, the cells in the upper layer and the cells in the lower layer were recovered using Qiazole (Qiagen).
From the recovered cell lysate, RNA was extracted using an RNeasy Protect Kit (Qiagen) according to the product description and […] into cDNA using Superscript VILO (Invitrogen) according to the product description. Real time PCR was performed on LightCycler (Roche) using […] as an internal standard and using primer pairs for the following genes. The cycle threshold (Ct value) calculated using Lightcycler software ver. 3.5 was normalized for each sample GAPDH mRNA.
Proteins of the candidate aging factors (IGFBP 7 and RSPO 4) (purchased from Serotec, R&D SYSTEMS) were added to a medium for culturing young fibroblasts at concentrations of 0 μg/ml and 10 μg/ml, cultured for 2 days, and the cells were collected using Qiazole (Qiagen). The recovered cell lysate was examined for the expression levels of MMP1 and collagen in the same manner as described above for quantitative RT-PCR. IGFBP7 and RSPO4 reduced the expression of collagen and increased the expression of MMP1.

Molecule | expression of MMP1 | expression of collagen
B1 | increased | reduced
B2 | increased | reduced
